Assay results taken from article PMC3553970.

Substrate: N[C@@H](Cc1ccc(O)cc1)C(=O)O
Assay: purified protein
Conditions: amino acid activation, ATP, no tRNA, 37°C, near-cognate amino acid

B1: M. mobile PheRS (MmPheRS) (Mycoplasma mobile 163K) (protein)
chain: MKKNLTNLRIETLEDLKIAKSNFLNNDLELKQLMNDLKLASKEQKASIGQKINFYKQEIEQFFLTKKEEIEKKEVLKKIQDEFIDVFEEVNFSSSLHPLTLIENRFRTWFLNNGYYETEGSEITTDKINFELLNIPKDHPSRDMQDSLYLEKEQNGDQLLLRTHNTGFSIIELIKNKNKAFSAFSIGKVYRNDEDDNTHSHQFSQVDVIVAGKYNFPNLMWLLKSLLSYVFEEEVKIRLRPSYFPFTEPSCEVDVFYKNKWIEVLGSGIIHENVMKAAGYTNDMNALAWGIGIERIAMIKYGIDNIREFYKNDIRFLKQFNLEIEKLEV
Work on B1 yielded a Km of 3.9 ± 0.54 mM, a kcat of 8 s⁻¹ and a kcat/Km of 2100 M⁻¹ s⁻¹.
